Results published in US20240026334.

Target: type I collagen (Rattus norvegicus) (UniProt P02454+P02466)
Details: maximum binding at 12-18% DNA mass fraction; binding decreases at higher DNA fraction, no fibers at ~45% DNA; collagen species not stated in this example

Chain of type I collagen (Rattus norvegicus) (P02454 152-1207, chain 1 of 2): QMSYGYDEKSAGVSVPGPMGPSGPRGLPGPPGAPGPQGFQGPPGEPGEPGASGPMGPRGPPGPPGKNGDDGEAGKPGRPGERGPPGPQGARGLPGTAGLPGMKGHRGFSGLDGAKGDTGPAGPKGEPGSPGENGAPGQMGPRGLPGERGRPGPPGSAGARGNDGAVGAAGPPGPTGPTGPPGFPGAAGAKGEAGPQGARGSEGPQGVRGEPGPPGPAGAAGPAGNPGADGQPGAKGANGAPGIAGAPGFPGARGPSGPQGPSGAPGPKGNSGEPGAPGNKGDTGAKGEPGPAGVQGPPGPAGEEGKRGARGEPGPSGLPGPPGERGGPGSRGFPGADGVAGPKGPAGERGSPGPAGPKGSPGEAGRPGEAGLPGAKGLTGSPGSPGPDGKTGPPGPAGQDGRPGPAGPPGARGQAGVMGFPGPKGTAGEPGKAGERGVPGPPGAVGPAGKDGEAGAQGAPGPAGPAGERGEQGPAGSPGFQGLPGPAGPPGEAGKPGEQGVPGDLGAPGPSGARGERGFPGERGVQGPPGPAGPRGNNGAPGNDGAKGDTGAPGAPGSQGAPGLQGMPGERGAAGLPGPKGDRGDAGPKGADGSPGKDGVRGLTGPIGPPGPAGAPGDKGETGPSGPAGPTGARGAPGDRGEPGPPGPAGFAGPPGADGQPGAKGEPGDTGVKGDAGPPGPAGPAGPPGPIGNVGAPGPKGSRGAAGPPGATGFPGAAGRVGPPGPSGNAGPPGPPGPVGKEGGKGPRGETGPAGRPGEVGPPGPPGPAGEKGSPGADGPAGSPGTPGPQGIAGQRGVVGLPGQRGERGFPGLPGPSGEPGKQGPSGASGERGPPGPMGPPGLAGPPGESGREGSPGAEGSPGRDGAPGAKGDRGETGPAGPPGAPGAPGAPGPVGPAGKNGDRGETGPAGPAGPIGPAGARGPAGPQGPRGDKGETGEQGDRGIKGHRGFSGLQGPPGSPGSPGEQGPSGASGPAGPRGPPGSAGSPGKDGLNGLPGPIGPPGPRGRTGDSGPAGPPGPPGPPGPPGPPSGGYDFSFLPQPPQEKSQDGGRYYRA
Chain of type I collagen (Rattus norvegicus) (P02466 86-1125, chain 2 of 2): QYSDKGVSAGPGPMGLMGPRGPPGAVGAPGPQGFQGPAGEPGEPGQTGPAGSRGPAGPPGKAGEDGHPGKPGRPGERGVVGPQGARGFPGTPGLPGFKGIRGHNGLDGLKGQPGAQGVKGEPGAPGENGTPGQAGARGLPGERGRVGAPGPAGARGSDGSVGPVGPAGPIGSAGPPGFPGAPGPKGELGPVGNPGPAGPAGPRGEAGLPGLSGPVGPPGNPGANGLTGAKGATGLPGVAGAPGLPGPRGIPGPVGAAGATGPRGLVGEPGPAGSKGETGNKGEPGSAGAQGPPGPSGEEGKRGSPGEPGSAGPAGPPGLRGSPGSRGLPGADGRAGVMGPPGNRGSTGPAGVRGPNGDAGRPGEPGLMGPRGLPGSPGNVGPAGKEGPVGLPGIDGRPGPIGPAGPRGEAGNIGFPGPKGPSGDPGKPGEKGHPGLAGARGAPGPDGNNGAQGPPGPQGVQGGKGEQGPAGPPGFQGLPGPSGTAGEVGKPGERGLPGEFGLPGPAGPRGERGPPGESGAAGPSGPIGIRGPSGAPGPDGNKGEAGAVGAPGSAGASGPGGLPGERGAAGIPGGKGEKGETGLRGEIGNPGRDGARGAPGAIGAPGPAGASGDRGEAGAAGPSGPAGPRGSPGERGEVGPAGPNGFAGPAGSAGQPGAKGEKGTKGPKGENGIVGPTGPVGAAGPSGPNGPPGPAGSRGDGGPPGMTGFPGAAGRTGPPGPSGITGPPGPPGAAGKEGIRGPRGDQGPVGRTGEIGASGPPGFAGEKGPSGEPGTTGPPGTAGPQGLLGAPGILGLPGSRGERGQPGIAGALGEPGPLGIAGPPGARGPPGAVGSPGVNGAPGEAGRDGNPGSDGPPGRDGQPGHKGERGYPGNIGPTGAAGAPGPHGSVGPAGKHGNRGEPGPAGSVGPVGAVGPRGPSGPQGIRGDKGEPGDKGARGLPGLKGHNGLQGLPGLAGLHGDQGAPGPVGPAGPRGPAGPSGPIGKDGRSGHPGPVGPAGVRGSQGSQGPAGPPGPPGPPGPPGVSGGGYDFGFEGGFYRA

“AATTTAGGAGCTGAAGGTCAGGGCACCAGCAGCCTTTGGAAGCCTAVAGGACAACAGTCAGCCTGGCTAGAAAAAAAAACAATGTCACAG [90 nt random ssDNA oligomer]” gave a binding (ug ssDNA/ug collagen) of 0.15.
